Test results as given in the Immune Epitope Database (IEDB).

What was measured:
HLA-A*29:02 = assay: IEDB peptide-MHC binding, purified MHC/competitive/fluorescence; filed as Kd, often an IC50 or EC50 that approximates it; ≥ and ≤ were set here for values at or beyond the usual limits of such assays; details: source organism: Bacillus anthracis str. A0488
HLA-B*46:01 [1] = assay: as above; details: source organism: Bacillus anthracis str. A0488
HLA-A*24:03 = assay: as above; details: source organism: Bacillus anthracis str. A0488
HLA-A*01:01 = assay: as above
HLA-B*39:01 = assay: as above; details: source organism: Bacillus anthracis str. A0488
HLA-B*07:02 [2] = assay: as above
HLA-B*15:01 [3] = assay: as above; details: source organism: Bacillus anthracis str. A0488
HLA-A*68:02 = assay: as above
HLA-B*58:01 [4] = assay: as above; details: source organism: Bacillus anthracis str. A0488
HLA-A*26:01 = assay: as above
HLA-B*27:05 [5] = assay: as above; details: source organism: Bacillus anthracis str. A0488
HLA-A*02:01 [6] = assay: as above; details: source organism: Bacillus anthracis str. A0488
HLA-B*18:01 = assay: as above; details: source organism: Bacillus anthracis str. A0488
HLA-A*30:02 = assay: as above; details: source organism: Bacillus anthracis str. A0488
HLA-A*03:01 = assay: as above; details: source organism: Bacillus anthracis str. A0488
HLA-B*08:01 = assay: as above; details: source organism: Bacillus anthracis str. A0488
HLA-A*66:01 = assay: as above; details: source organism: Bacillus anthracis str. A0488
HLA-B*53:01 = assay: as above; details: source organism: Bacillus anthracis str. A0488
HLA-A*11:01 [7] = assay: as above; details: source organism: Bacillus anthracis str. A0488
HLA-B*14:02 = assay: as above; details: source organism: Bacillus anthracis str. A0488
HLA-B*44:02 = assay: as above; details: source organism: Bacillus anthracis str. A0488
HLA-B*40:01 [8] = assay: as above; details: source organism: Bacillus anthracis str. A0488
HLA-A*30:01 [9] = assay: as above; details: source organism: Bacillus anthracis str. A0488
HLA-B*57:01 = assay: as above
HLA-B*51:01 = assay: as above; details: source organism: Bacillus anthracis str. A0488
HLA-B*27:03 = assay: as above; details: source organism: Bacillus anthracis str. A0488
HLA-C*12:03 = assay: IEDB peptide-MHC binding, purified MHC/direct/fluorescence; filed as Kd, often an IC50 or EC50 that approximates it; ≥ and ≤ were set here for values at or beyond the usual limits of such assays; details: source organism: Bacillus anthracis str. A0488
HLA-B*35:01 = assay: IEDB peptide-MHC binding, purified MHC/competitive/fluorescence; filed as Kd, often an IC50 or EC50 that approximates it; ≥ and ≤ were set here for values at or beyond the usual limits of such assays; details: source organism: Mycobacterium tuberculosis C
HLA-A*26:02 [10] = assay: as above; details: source organism: Mycobacterium tuberculosis C
HLA-B*15:17 = assay: as above; details: source organism: Mycobacterium tuberculosis C
HLA-A*26:03 = assay: as above; details: source organism: Mycobacterium tuberculosis C
HLA-A*69:01 = assay: as above; details: source organism: Mycobacterium tuberculosis C
HLA-B*07:02 [11] = assay: IEDB peptide-MHC binding, purified MHC/direct/fluorescence; filed as Kd, often an IC50 or EC50 that approximates it; ≥ and ≤ were set here for values at or beyond the usual limits of such assays; details: source organism: Mycobacterium tuberculosis
HLA-B*48:01 = assay: as above; details: source organism: Mycobacterium tuberculosis
HLA-B*58:01 [12] = assay: as above; details: source organism: Mycobacterium tuberculosis
HLA-B*27:05 [13] = assay: as above; details: source organism: Mycobacterium tuberculosis
HLA-A*02:01 [14] = assay: as above; details: source organism: Mycobacterium tuberculosis
HLA-A*31:01 = assay: as above; details: source organism: Mycobacterium tuberculosis
HLA-A*11:01 [15] = assay: as above; details: source organism: Mycobacterium tuberculosis
HLA-B*40:01 [16] = assay: as above; details: source organism: Mycobacterium tuberculosis
HLA-B*45:06 = assay: IEDB peptide-MHC binding, purified MHC/competitive/fluorescence; filed as Kd, often an IC50 or EC50 that approximates it; ≥ and ≤ were set here for values at or beyond the usual limits of such assays; details: source organism: Influenza A virus (A/swine/Hannover/1/1981(H1N1))
HLA-B*27:20 = assay: as above; details: source organism: Influenza A virus (A/swine/Hannover/1/1981(H1N1))
HLA-B*83:01 = assay: as above; details: source organism: Influenza A virus (A/swine/Hannover/1/1981(H1N1))
HLA-B*15:42 = assay: as above; details: source organism: Influenza A virus (A/swine/Hannover/1/1981(H1N1))
HLA-C*14:02 = assay: as above; details: source organism: Influenza A virus (A/swine/Hannover/1/1981(H1N1))
HLA-B*46:01 [17] = assay: IEDB peptide-MHC binding, purified MHC/direct/fluorescence; filed as Kd, often an IC50 or EC50 that approximates it; ≥ and ≤ were set here for values at or beyond the usual limits of such assays; details: source organism: Yellow fever virus
HLA-A*26:02 [18] = assay: as above; details: source organism: Yellow fever virus
HLA-B*15:01 [19] = assay: as above; details: source organism: Yellow fever virus
HLA-A*80:01 = assay: as above; details: source organism: Camelpox virus M-96
HLA-A*30:01 [20] = assay: as above; details: source organism: Variola virus
[21] = source organism: Bacillus anthracis str. A0488
[22] = source organism: Mycobacterium tuberculosis C

With FVMPIFEQI the Kd (HLA-A*29:02) was no less than 5 µM, the Kd (HLA-B*46:01 [1]) was no less than 20 µM and the Kd (HLA-A*24:03) was 0.0032 µM. For the same sequence, the Kd (HLA-A*01:01; [21]) was no less than 5 µM, the Kd (HLA-B*39:01) was no less than 20 µM and the Kd (HLA-B*07:02 [2]; [21]) was no less than 5 µM. It also gave a Kd (HLA-B*15:01 [3]) of no less than 20 µM, a Kd (HLA-A*68:02; [21]) of 0.0003 µM and a Kd (HLA-B*58:01 [4]) of no less than 5 µM. It also gave a Kd (HLA-A*26:01; [21]) of no less than 20 µM, a Kd (HLA-B*27:05 [5]) of no less than 5 µM and a Kd (HLA-A*02:01 [6]) of no less than 5 µM. For the same sequence, the Kd (HLA-B*18:01) was no less than 20 µM, the Kd (HLA-A*30:02) was no less than 5 µM and the Kd (HLA-A*03:01) was no less than 20 µM. The Kd (HLA-B*08:01) was no less than 5 µM, the Kd (HLA-A*66:01) was no less than 5 µM and the Kd (HLA-B*53:01) was no less than 5 µM. It also gave a Kd (HLA-A*11:01 [7]) of no less than 5 µM, a Kd (HLA-B*14:02) of no less than 5 µM and a Kd (HLA-B*44:02) of no less than 5 µM. It also gave a Kd (HLA-B*40:01 [8]) of no less than 5 µM, a Kd (HLA-A*30:01 [9]) of no less than 5 µM and a Kd (HLA-B*57:01; [21]) of no less than 20 µM. For the same sequence, the Kd (HLA-B*51:01) was no less than 20 µM, the Kd (HLA-B*27:03) was no less than 20 µM and the Kd (HLA-C*12:03) was 0.068 µM.
LTFLDCLYY showed a Kd (HLA-B*35:01) of 0.0713 µM, a Kd (HLA-A*01:01; [22]) of 0.004 µM and a Kd (HLA-A*26:02 [10]) of no less than 20 µM. It also gave a Kd (HLA-A*68:02; [22]) of no less than 20 µM, a Kd (HLA-A*26:01; [22]) of 0.111 µM and a Kd (HLA-B*15:17) of 0.0005 µM. For the same sequence, the Kd (HLA-A*26:03) was no less than 20 µM, the Kd (HLA-A*69:01) was no less than 20 µM and the Kd (HLA-B*57:01; [22]) was 0.187 µM. It also gave a Kd (HLA-B*07:02 [11]) of no less than 20 µM, a Kd (HLA-B*48:01) of no less than 20 µM and a Kd (HLA-B*58:01 [12]) of 0.145 µM. The Kd (HLA-B*27:05 [13]) was no less than 20 µM, the Kd (HLA-A*02:01 [14]) was no less than 20 µM and the Kd (HLA-A*31:01) was no less than 20 µM. For the same sequence, the Kd (HLA-A*11:01 [15]) was 0.0733 µM and the Kd (HLA-B*40:01 [16]) was no less than 20 µM.
Sequence RRRFVQNAL has a Kd (HLA-B*45:06) of no less than 5 µM, a Kd (HLA-B*07:02 [2]; source organism: Influenza A virus (A/swine/Hannover/1/1981(H1N1))) of no less than 20 µM and a Kd (HLA-B*27:20) of 0.0013 µM. For the same sequence, the Kd (HLA-B*83:01) was no less than 5 µM, the Kd (HLA-B*15:42) was no less than 5 µM and the Kd (HLA-C*14:02) was 0.21 µM.
For LVLAVGPAY, the Kd (HLA-B*46:01 [17]) was no less than 20 µM, the Kd (HLA-A*26:02 [18]) was 0.544 µM and the Kd (HLA-B*15:01 [19]) was 0.0543 µM.
ITYLMNRFK gave a Kd (HLA-A*80:01) of no less than 20 µM and a Kd (HLA-A*30:01 [20]) of no more than 0.001 µM.
